According to article PMC4108065, “Inflammation and pancreatic cancer: molecular and functional interactions between S100A8, S100A9, NT-S100A8 and TGFβ1” (Cell Communication and Signaling : CCS, 2014):
“And” between values parts separate entries of the source, which are not always exact repeats. Equal values may be shown once.

Legend:
[1] = Degradation of the 2280 m/z peptide in BxPC3 conditioned media (MALDI-TOF/MS); format: in vitro ADME, human; conditions: 37°C
Procedure: (§1) To obtain BxPC3 and Capan1 conditioned media (CM), 400,000 cells were cultured (75 cm^2 flasks) for 96 hours in RPMI supplemented with 1% FCS and 0.1% gentamycin. In parallel, Ukrain (Nowicky Pharma, Wien, Austria) treated Capan1 CM were obtained as above, the difference being that Ukrain was added 24 hours after cells had been seeded at the final concentration of 5 μM. Complete culture media maintained in a cell culture incubator for 96 hours (negative control), Capan1 and Ukrain-treated Capan1 CM were centrifuged at 1,500 rpm for 10 min, and then immediately mixed with 3 μM S100A8 or 2.5 μM S100A9 (ProSpec-Tany TechnoGene, Ness Ziona, Israel) and maintained at 37°C overnight before MALDI-TOF/MS analyses. Complete culture media, BxPC3 and Capan1 CM, treated as described above, were incubated at 37°C with 200 μM of the S100A8 1–19 N-terminal aminoacid sequence (NT-S100A8) (Primm, Milano, Italy) for 1, 2, 3, 4, 5, 6, 12 and 24 hours before MALDI-TOF/MS analyses. At least three independent sets of experiments were performed for both assays.
(§2) Cell culture media were first desalted and purified by ZipTip C18 pipette tips, following the procedure described in the ZipTip user’s guide. […]

[2] = Degradation of the 2280 m/z peptide in Capan1 conditioned media (MALDI-TOF/MS); format: in vitro ADME, human; conditions: 37°C
Procedure: as §1, §2

[3] = Stability of the 2280 m/z peptide in non-conditioned media (MALDI-TOF/MS); format: in vitro ADME; conditions: 200 μM, 37°C, time 0, MALDI-TOF/MS
Procedure: as §1, §2

[4] = target: the molecule itself; experiment: MALDI-TOF/MS of mixtures (linear positive ion mode); proteins and CaCl2 mixed at equimolar concentration (11.3 μM) in aqueous solution, incubated overnight at 37°C, diluted 1/10 in 0.1% TFA, sinapinic acid matrix
[5] = target: T1, S100A9, P06702; experiment: as above; conditions: remark: other sources report otherwise
T1 chain: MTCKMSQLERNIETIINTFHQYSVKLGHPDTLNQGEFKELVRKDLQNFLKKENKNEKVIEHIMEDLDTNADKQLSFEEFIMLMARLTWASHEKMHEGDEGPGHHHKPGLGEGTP

For “2280 m/z peptide: synthesized 1–19 N-terminal aminoacid sequence of S100A8, released by Capan1 conditioned medium (MLTELEKALNSIIDVYHKY; UniProt P05109 1-19, looked up, fragment)”, the “time of degradation of the parental 2280 m/z peptide” value ([1]; 200 μM peptide in BxPC3 conditioned media (96 h, RPMI 1% FCS), MALDI-TOF/MS, TIC normalized) was 12 h, the “parental 19 aminoacid peptide after 24 hours' incubation” value ([1]; 200 μM, BxPC3 conditioned media, 24 hours, MALDI-TOF/MS 650–3000 m/z) was “disappeared” and the “time of degradation of the parental 2280 m/z peptide” value ([2]; 200 μM peptide in Capan1 conditioned media (96 h, RPMI 1% FCS), MALDI-TOF/MS, TIC normalized) was 2 h. For the same molecule, the “parental 19 aminoacid peptide after 24 hours' incubation” value ([2]; 200 μM, Capan1 conditioned media, 24 hours, MALDI-TOF/MS 650–3000 m/z) was “disappeared” and the “abundance of the parental peptide at 2280 m/z (TIC normalized)” value [3] was 0.99.

B1: S100A8 (natural protein, UniProt P05109 1-93, looked up)
chain: MLTELEKALNSIIDVYHKYSLIKGNFHAVYRDDLKKLLETECPQYIRKKGADVWFKELDINTDGAVNFQEFLILVIKMGVAAHKKSHEESHKE
notes: Commercial recombinant protein; source: bought: ProSpec-Tany TechnoGene
With B1 the “stoichiometry N” value [4] was 2.

B2: S100A9, P06702 1-114 (natural protein)
chain: MTCKMSQLERNIETIINTFHQYSVKLGHPDTLNQGEFKELVRKDLQNFLKKENKNEKVIEHIMEDLDTNADKQLSFEEFIMLMARLTWASHEKMHEGDEGPGHHHKPGLGEGTP
For B2, the stoichiometry N [5] was 2 and 3.
